Assay results published in the nanobody polyreactivity screen of Harvey et al. (2022).

Test: yeast display, Sf9 membrane polyspecificity reagent, FACS + sequencing; frameworks hold sequencing errors
Procedure, shortened: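 Using colony PCR, genes from sorted yeast display clones were amplified, then sequenced on MiSeq at 2 × 250 and filtered by CDR length. The clones had been stained with 10% biotinylated, detergent-solubilized Sf9 membrane reagent for 1 hour at 4 °C and sorted by FACS into low and high (top ~1%) gates on anti-HA and streptavidin fluorescence. Polyreactivity labels come from the gate of origin.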

| Sequence | polyreactivity (PSR sort gate) |
| --- | --- |
| QVQLVESGGGLVQAGGSLRLSCAASGNTFVPYAMGWYRQAPGKERELVAAISWRGGSTYYADSVKGRFTISRDNAKNTVYLQMNSLKPEDTAVYYCAARTFYRPGLAGGYWGQGTQVTVSS | high polyreactivity |
| QVQLVESGGGLVPARGSLRLSSAASGIIFSRYAMGWYRQAPGKERELVAAITRSGGDTYYADSVKGRFTISRDNAKTTFYLQMKSLTPEDSADYYCAAERTWYPWVATGYYWGQGTQVTVSS | low polyreactivity |
| QDQLVESGGGLVQAGGSLRLSCAASGRNFELYAMGWYRPAPRKERELVATISGSGGSTYYADSVKGRFTISRDNAKNTVYLQMNSLKPEDTAVFYCAKNAYGYYYSRSDDWGQGTQVTVSS | low polyreactivity |
| QVQLQESGGGQVQAGGSLRLSCAASGTIFLYAFMGWYRQAPGKERELVAAIDVGTTTNYADSVKGRFTISRDNAKNTGYLQMNSLKPEDTAVYYCAANLGYLEDLGYWGQGTQVTVSS | low polyreactivity |
| QVQLVESGGGLVQAGGSLRLSCAASGFIFYDNAMGWYRQAPGKERELVAAITSGGSTYYADSVKGRFTISRDNAKNTVYLQMNSLKPEDTAVYYCATRPWGSWYYYWGQGTQVTVSS | high polyreactivity |
| QVQLVESGGGLVQAGGSLRLSCAASGRTFYWNAMGWYRQAPGKDRDLVASISWSGGRTYYADSVKGRFTISRDNAKNTVYLQMNSLKPEDTAVYYCARRYSGTPSTFYYWGQGTQVNVSS | high polyreactivity |
| QVQLVESGGGLVQAGGSLRLSCAASGRTFFVYAMGWYRQAPVKERELVAAISNTGGRTYYADSVKGRFTISRDNAKNTVYLQMNSLKPEDTAVYYCAAPYSGPYRSYEYYWGQGTQVTVSS | low polyreactivity |
| QVQLVESGGGLVQAGGSLRLSCAASGSTFRQYAMGWYRQAPGKERELVAAITWRGDNTYYADSVKGRFTISRDNAKNTVYLQMNSLKPEDTAVYYCAARWSYRLYWGYGYWGQGTQVTVSS | low polyreactivity |
| QVQLVESGGGLVQAGGSLRLSCDASGLTFRYYAMVWYRQAHGKERELDATITRAGRTNYADSVKGRFTISRDNAKNTVYFQMNRLNPEDTAVYYCNAKQSGKYPRVVGYDYWGQGTQVTVSS | high polyreactivity |
| QDQLVESAGGLVQAGGSLRLSCAASGSTSQSNAMGWYREAPGKDRELVAAISWSGTSTYYADSVKGRFTISRDNAKNTVYLQMNRLKPEDTAGYYCAADYIFEYDYWGQGTQVTVSS | low polyreactivity |
| QVQLVESGGCIVQAGGSLRLSCSASGLLFYINPMGWYRQAPGKEREFVAGINRNGGSTYYADSVKGRFTISRDNALYSVYLQMNSLKPEDTAVYYCNADQYWDRYFSWGQGTQGTVSS | low polyreactivity |
| QVQLVESGGGLVQAGGSLRLSCAASGFIFFRYAMGWYRQAPGKERELVAAISTRTGITYYSDSVKGRFTISRDNAKNNVYLQMNRLKPEDTAVYDRNVLRSHSLYPFWKYDYWGQGTQVTVSS | high polyreactivity |
| QVQLVESGGGLVQAGGSLRLSCAASGLIFYRYAMGWYRQAPGKERELVAAISSSGVSTYYADSVKGRFTISRDNAKNTVYLQMNSLIPEDTAVYYCAADVGSRSYSYDYWGQGTQVTVSS | low polyreactivity |
| QVQLVESGGGLVQAGGSLRLSCAASGSTFAIYPMGWYRPAPGKERELVAAITRSGGNTYYADSVKGRFTISRDNAKNTVYLQMNSLKPEDTAVYYCNAETYYWSAYAQYEYWGQGTQVTVSS | high polyreactivity |
| QVQLVESGGGLVQAGGSLRLSCAASGRTFAKYAMAWYRQAPGKERELVAAINSSGGSTYYADSVKGRFTISRDNAKNTVYLQMNSLKPEDTAVYFCAALGIGSYRRYSGYDYWGQGTQVTVSS | low polyreactivity |
| QVQLVESGGGLVQAGGSLRLSCAASGRIVYIYAMGWYRQAPGKERELVAAISSGGTTNYADSVKGRFTISRDNAKNTVYLQMNSLKPEDTAVYYCAAYWRSRNRFYWGQGTQVTVSS | high polyreactivity |
| QVQLVESRVGLVQAGGSLRLSCAASGRIFHYYAMGWYRQAPGKERELVAAINASGTSTYYADSVKGRFTISRDNAKNTVYLQMNSLKPEDTAVYYCAAQPYYRGGSYSYTRNSKLIYWGQGTQVTVSS | high polyreactivity |
| QVQLVESGGGLVQAGGSLRLSCAASGSTFAYYAMGWYRQAPGKERELVAGISGSGGSTYYADSVKGRFTISRDNAKNTVYLQMNSLKPEVTAVYYCAVVQRSKRTYPWYDYWGQGTQVTVSS | low polyreactivity |
| QVQLVESGGGLVQAGGSLRLSCAASGKTFVYYTMGWYRQAPGKERELVAAISYSGGSTYYADSVKGRFTLSRDNAKNTVYLQMNSLKPEDTAVYYCAKQVADRYDYWGQGTQVTVSS | low polyreactivity |
| QVQLVESGGGLVQAGGSLRLSCAASGSIFPSYAMGWYRQAPGKERELVAAISRSAGSTYYADSVKGRFTISRDNAKNTVYLQMNSLKPEDTAVYYCAAEGYSSRYRYDYWGQGTQVTVSS | low polyreactivity |
| QFQIVDSVGGLVQAGGSLRLSCAASGRTFSYYSLGWYREATGKERELVASIRKSGASTYYADSVKGRFTISRDNAKNTVYLQMNSLKPEDTAVYYCNTAGWSFYSGRYDYWGQGTQVTVSS | high polyreactivity |
| QVQLVESGGGIVQAGGSLRLNSAASGITINGNAMGWYRQEPGKERQLVAAISRSSSRTYYADSVKGRFTISRDNAKNTVYLQKNSLKQEDTAVYYCAALSLNVDAPSYGYWGQGTQVTVSS | high polyreactivity |

| Sequence | polyreactivity (PSR sort gate) |
| --- | --- |
| QVQLVESGGGLVQAGGSLRLSCAASGLIFVWYDMGWYRQAPGKERELVATISSDGITNYADSVKGLFTISRDNAKNTVYLQMNSLKPEDTAVSYCNAGPDDYVGYWGKYDYWGQGTQVTVSS | low polyreactivity |
| QVQLVESGGGLVQAGGSLRLSCAASGSTLDVYAMGWYRQAPGKERELVAAISWSVGSTYYADSVKGRFKISRDNAKNTVYLQMNSLKPEDTAVYYCAAEPYEYAYYGYDYWGQGTQVTVSS | high polyreactivity |
| QVQLVESGGGLVQAGGSLRLSCAASGSTFSYNTMGWYRQAPGKERELVATIDFNGGSTYYADSVKGRFTISRDNAKNTVYLQMNSLKPEDTAVYYCNADRYPYWGYDYWGQGTQVTVSS | low polyreactivity |
| QVQLVESGGGLVQAGGSLRLSCAASGRIFSRYAMGWYRQAPGKERELVATISSGGGTYYADSVKGRFTISRDTAKNTVYLQMNSLKPEDTAVYYCAAASYSGHGRYDDWGQGTQVSVSS | high polyreactivity |
| QVQLEESGLALVQAGGSLRLSCADSGRIFRKKAMGWYRQAPGKERELVAAISSSGSTYYADSVKGRFKISRDNAKNTVYLQMNSLKPVDTAVYYCAARYQYGNRRGRDYWGQGTQVTVSS | high polyreactivity |
| QVQLVESGGGLVQAGGSLRLSCAASGLIFYKYAMGWYRQAPGKERELVASISTGGGSTYYADSVKGRFTISRDNAKNTVYLQMNSLKPEDTAVYYCAARWWSRFRGSHSLYDYWGQGTQVTVSS | high polyreactivity |
| QVQLVESGGGLVQAGGSLRLSCAASGSIFADYTMGWYRQAPGKERELVAAISSDDSTYYADSVKGRFTISRDNAKNTVYLQMNSLKPEDTAVYYCNADGSIGPEEYWGQGTQVTVSS | low polyreactivity |
| QVQLVESGGGLVQAGGSLRLSCAASGLIFSVYAMGWYRKAPGKERELVAAITGGGSTHYADSVKGRFTISRDNAKNTVYLQMNSLKPEDTAVYYCATRSYSWLHYWTSRGDEDYWGQGTQVTVSS | high polyreactivity |
| QVQRVESGGGLVQAGGSLRLSCAASGLTFSYNAMGWYRQAPGKERELVAAITVSGGRTYYADSVKGRFTISRDNAKNTVYLQMNSLKPEDTAVYYCNADYDEGYYGYLRYDYDYWGQGTQVTVSS | high polyreactivity |
| QVQLVESGGGLVQAGGSLRLSCAASGRTFPVYAMGWYRQAPGKERELVAAIRFSGGSTYYADSVKGRFTISRDNAKNTVYLQMNSLKPEDTAVYYCAADDWSWSTAWVPWYNYDYWGQGTQVTVSS | low polyreactivity |
| QVQLVESGGGLVQAGGSLRLSCAASGFIFDKNAMGWYRQAPGKERELVATITSGGSTYYADSVKGRFTISRDNAKNTVYFQMNSLKPDETAVYYCAALDYGYRWYRYYYWGQGTQVTVSS | high polyreactivity |
| QVHLVESGGGLVEAGGSLRLSCAASGRIFQGYAMGWYRQAPGKERELVAAITRSGGSTYYADSVKGRFTISRDNAKNTVYLQMNSLKPEDTAVYYCAASHYGLLEYWGQGTQVTVSS | low polyreactivity |
| QVQLVESGGGLVQAGGSLRLSCAASGRIFYRYARGWYRQAPGKEREFVAAISGTGGSTYYADSVKGRFTISRDNAKNTVYLQMNSLKPEDTAVYYCAAFSYYSSGYDYWGQGTQVTVSS | high polyreactivity |
| QVQLVESGGGLVQAGGSLRLSCAASGRIFSENAMGWYRQAPGKERELVAAISVSGGSTYYADSVKGRFTISRDNAKNTVYLQMNSLKPEDTAVYYCAAEYLAYYSGYDYWGQGTQVTVSS | high polyreactivity |
| QVQLVESGGGLVQAGGSLRLSCAASGFIFGSYTMGWYRQAPGKERELVAAISWSSGCSTYYADSVKGRFTISRDNAKNTVYLQMNSLKPEDTAVYYCAARHRGAGRNDFYYWGQGTQVTVSS | high polyreactivity |
| QVQLVESGGGLVQAGGSLRLSCAASGFIFITVNAMGWYRQAPGKEREFVAAITRSGTGTYYADSVKGRFTISRDNAKNTVYLQMNSLKPEDTAVYYCAADATSTGAYDYWGQGTQVTVSS | low polyreactivity |
| QVQLVESGGGLVQAGGSLRLSCAPSGSTFRYNAMGWYRQAPGKERELVAAITFSGDSTSYADSVKGRFTISRDNAKNTVYLQMNSLKPEDTAVYYCAVDTWNGDGSGYSLEFEYWGQGTQVTVSS | low polyreactivity |
| QVQLVESGGGLVQAGGSLRLSCAASGSIFRWNAMGWYRQAPRKEREMVAAIDYSGGSTYYADSVKGRFTISRDNAKKTVYLQMNSLKPEDTAVYFCADTAYYGGYLRYDYWGQGTQVTVSS | low polyreactivity |
| QVQLVESVGGLVQAGGSLRLSCAASGRTFRYNAMGWYRQAPGKERELVASITSGGSTNYADSVKGRFTISRDNAKNTVYLQMNSLKPEDTAVYYCAAEAYFWQYERDYWGQGTQVTLSS | low polyreactivity |
| QVQLVESGGGLVQAGGSLRLSCAASGSTFFPNGMGWYRQARGKEWELVAAITQDGGSTYYADSVKGRFTISRDNAKNTVYLQMNSLNPEDTAVYYCAASAGPYYEYGYWGQGTQVTVSS | low polyreactivity |
| QVQLVESGGGLVQAGGSLRLSCAASGFIFHNYVMGWYRQAPGKERELVAVISGSGGSTYYADSVKGRFTISRDNAKNTVYLQMNSLKPEDTAVYYCAADNVYGYDYWGQGTQVTVSS | low polyreactivity |
